The record followed here is US20180071366A1.

Numbered stars: 1 amine (or outer) side, 2 acyl side, 3 side chain; on linkers, the order of the positions; unused ones are H or OH. Bridge positions count the residues as written; N and C are the ends. Square brackets hold non-standard residues; d marks the D form. * marks the point of attachment. C20 diacid = O=C(O)CCCCCCCCCCCCCCCCCCC(=O)*; γGlu = O=C(O)[C@H](CCC(=O)[*:2])N[*:1]; Hyp = O=C(O)[C@@H]1C[C@@H](O)CN1; NMeI = CC[C@H](C)[C@H](NC)C(=O)O; Aad = N[C@@H](CCCC(=O)O)C(=O)O; Orn = NCCC[C@H](N)C(=O)O; Dab = NCC[C@H](N)C(=O)O; Dap = NC[C@H](N)C(=O)O; Sar = CNCC(=O)O

In assay [1] the target is recombinant human amylin 3 receptor (hAMYR3) (human), P30988. Briefly: cell-based or functional assay.
In assay [2] the target is recombinant human calcitonin receptor (hCT-R) (human), P30988. Briefly: cell-based or functional assay.
Chain of recombinant human calcitonin receptor (hCT-R) (human), P30988 (P30988 25-474): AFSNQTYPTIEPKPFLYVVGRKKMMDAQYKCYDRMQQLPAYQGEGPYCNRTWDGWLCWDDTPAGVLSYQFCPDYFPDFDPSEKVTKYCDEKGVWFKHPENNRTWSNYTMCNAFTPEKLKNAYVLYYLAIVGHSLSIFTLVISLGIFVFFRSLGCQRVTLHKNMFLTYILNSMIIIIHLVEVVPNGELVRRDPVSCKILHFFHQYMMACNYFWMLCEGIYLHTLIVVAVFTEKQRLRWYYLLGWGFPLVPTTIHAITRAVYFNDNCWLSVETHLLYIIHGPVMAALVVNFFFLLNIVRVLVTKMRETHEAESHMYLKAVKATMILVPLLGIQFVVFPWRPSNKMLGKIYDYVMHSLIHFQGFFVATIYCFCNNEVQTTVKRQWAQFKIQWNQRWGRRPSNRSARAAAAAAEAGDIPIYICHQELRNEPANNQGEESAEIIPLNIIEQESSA

Chain of recombinant human amylin 3 receptor (hAMYR3) (human), P30988 (P30988 25-474, chain 1 of 2): as the sequence (P30988 25-474) above
Chain of recombinant human amylin 3 receptor (hAMYR3) (human), P30988 (O60896 24-148, chain 2 of 2, further chain): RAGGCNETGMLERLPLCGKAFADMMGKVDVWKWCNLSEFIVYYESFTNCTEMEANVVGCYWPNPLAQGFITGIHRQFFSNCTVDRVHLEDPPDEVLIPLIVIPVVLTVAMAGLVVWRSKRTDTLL

B1: Compound 48 (peptide)
peptide: {C20 diacid-γGlu}-R[Dap]GTAT[Aad]ATERLAHFLQRSSF[Sar]A[NMeI]LSSTEVGSNT[Hyp]-NH2
modifications: lactam 2-7
SMILES: CC[C@H](C)[C@@H](C(=O)N[C@@H](CC(C)C)C(=O)N[C@@H](CO)C(=O)N[C@@H](CO)C(=O)N[C@H](C(=O)N[C@@H](CCC(=O)O)C(=O)N[C@H](C(=O)NCC(=O)N[C@@H](CO)C(=O)N[C@@H](CC(N)=O)C(=O)N[C@H](C(=O)N1C[C@H](O)C[C@H]1C(N)=O)[C@@H](C)O)C(C)C)[C@@H](C)O)N(C)C(=O)[C@H](C)NC(=O)CN(C)C(=O)[C@H](Cc1ccccc1)NC(=O)[C@H](CO)NC(=O)[C@H](CO)NC(=O)[C@H](CCCNC(=N)N)NC(=O)[C@H](CCC(N)=O)NC(=O)[C@H](CC(C)C)NC(=O)[C@H](Cc1ccccc1)NC(=O)[C@H](Cc1c[nH]cn1)NC(=O)[C@H](C)NC(=O)[C@H](CC(C)C)NC(=O)[C@H](CCCNC(=N)N)NC(=O)[C@H](CCC(=O)O)NC(=O)[C@@H](NC(=O)[C@H](C)NC(=O)[C@@H]1CCCC(=O)NC[C@H](NC(=O)[C@H](CCCNC(=N)N)NC(=O)CC[C@H](NC(=O)CCCCCCCCCCCCCCCCCCC(=O)O)C(=O)O)C(=O)NCC(=O)N[C@@H]([C@@H](C)O)C(=O)N[C@@H](C)C(=O)N[C@@H]([C@@H](C)O)C(=O)N1)[C@@H](C)O
Take B1: the hAMYR3 EC50 [nM] (cAMP formation, 1321N1 cells expressing hAMYR3) in assay [1] is 0.02 nM. The hCT-R EC50 [nM] (cAMP formation, 1321N1 cells expressing hCT-R) in assay [2] is 0.107 nM.

B2: Compound 46 (peptide)
peptide: {C20 diacid-γGlu}-R[Dab]GTATDATERLAHFLQRSSF[Sar]A[NMeI]LSSTEVGSNT[Hyp]-NH2
modifications: lactam 2-7
SMILES: CC[C@H](C)[C@@H](C(=O)N[C@@H](CC(C)C)C(=O)N[C@@H](CO)C(=O)N[C@@H](CO)C(=O)N[C@H](C(=O)N[C@@H](CCC(=O)O)C(=O)N[C@H](C(=O)NCC(=O)N[C@@H](CO)C(=O)N[C@@H](CC(N)=O)C(=O)N[C@H](C(=O)N1C[C@H](O)C[C@H]1C(N)=O)[C@@H](C)O)C(C)C)[C@@H](C)O)N(C)C(=O)[C@H](C)NC(=O)CN(C)C(=O)[C@H](Cc1ccccc1)NC(=O)[C@H](CO)NC(=O)[C@H](CO)NC(=O)[C@H](CCCNC(=N)N)NC(=O)[C@H](CCC(N)=O)NC(=O)[C@H](CC(C)C)NC(=O)[C@H](Cc1ccccc1)NC(=O)[C@H](Cc1c[nH]cn1)NC(=O)[C@H](C)NC(=O)[C@H](CC(C)C)NC(=O)[C@H](CCCNC(=N)N)NC(=O)[C@H](CCC(=O)O)NC(=O)[C@@H](NC(=O)[C@H](C)NC(=O)[C@@H]1CC(=O)NCC[C@H](NC(=O)[C@H](CCCNC(=N)N)NC(=O)CC[C@H](NC(=O)CCCCCCCCCCCCCCCCCCC(=O)O)C(=O)O)C(=O)NCC(=O)N[C@@H]([C@@H](C)O)C(=O)N[C@@H](C)C(=O)N[C@@H]([C@@H](C)O)C(=O)N1)[C@@H](C)O
In the case of B2, the hAMYR3 EC50 [nM] (cAMP formation, 1321N1 cells expressing hAMYR3) in assay [1] worked out at 5.5 nM. Moreover, in assay [2], the hCT-R EC50 [nM] (cAMP formation, 1321N1 cells expressing hCT-R) turned out to be 7.5 nM.

B3: Compound 47 (peptide)
peptide: {C20 diacid-γGlu}-R[Orn]GTATDATERLAHFLQRSSF[Sar]A[NMeI]LSSTEVGSNT[Hyp]-NH2
modifications: lactam 2-7
SMILES: CC[C@H](C)[C@@H](C(=O)N[C@@H](CC(C)C)C(=O)N[C@@H](CO)C(=O)N[C@@H](CO)C(=O)N[C@H](C(=O)N[C@@H](CCC(=O)O)C(=O)N[C@H](C(=O)NCC(=O)N[C@@H](CO)C(=O)N[C@@H](CC(N)=O)C(=O)N[C@H](C(=O)N1C[C@H](O)C[C@H]1C(N)=O)[C@@H](C)O)C(C)C)[C@@H](C)O)N(C)C(=O)[C@H](C)NC(=O)CN(C)C(=O)[C@H](Cc1ccccc1)NC(=O)[C@H](CO)NC(=O)[C@H](CO)NC(=O)[C@H](CCCNC(=N)N)NC(=O)[C@H](CCC(N)=O)NC(=O)[C@H](CC(C)C)NC(=O)[C@H](Cc1ccccc1)NC(=O)[C@H](Cc1c[nH]cn1)NC(=O)[C@H](C)NC(=O)[C@H](CC(C)C)NC(=O)[C@H](CCCNC(=N)N)NC(=O)[C@H](CCC(=O)O)NC(=O)[C@@H](NC(=O)[C@H](C)NC(=O)[C@@H]1CC(=O)NCCC[C@H](NC(=O)[C@H](CCCNC(=N)N)NC(=O)CC[C@H](NC(=O)CCCCCCCCCCCCCCCCCCC(=O)O)C(=O)O)C(=O)NCC(=O)N[C@@H]([C@@H](C)O)C(=O)N[C@@H](C)C(=O)N[C@@H]([C@@H](C)O)C(=O)N1)[C@@H](C)O
B3: the hAMYR3 EC50 [nM] (cAMP formation, 1321N1 cells expressing hAMYR3) in assay [1] is 7.7 nM. Besides, the hCT-R EC50 [nM] (cAMP formation, 1321N1 cells expressing hCT-R) in assay [2] came to 10.8 nM.

B4: Compound 49 (peptide)
peptide: {C20 diacid-γGlu}-R[Dab]GTATEATERLAHFLQRSSF[Sar]A[NMeI]LSSTEVGSNT[Hyp]-NH2
modifications: lactam 2-7
SMILES: CC[C@H](C)[C@@H](C(=O)N[C@@H](CC(C)C)C(=O)N[C@@H](CO)C(=O)N[C@@H](CO)C(=O)N[C@H](C(=O)N[C@@H](CCC(=O)O)C(=O)N[C@H](C(=O)NCC(=O)N[C@@H](CO)C(=O)N[C@@H](CC(N)=O)C(=O)N[C@H](C(=O)N1C[C@H](O)C[C@H]1C(N)=O)[C@@H](C)O)C(C)C)[C@@H](C)O)N(C)C(=O)[C@H](C)NC(=O)CN(C)C(=O)[C@H](Cc1ccccc1)NC(=O)[C@H](CO)NC(=O)[C@H](CO)NC(=O)[C@H](CCCNC(=N)N)NC(=O)[C@H](CCC(N)=O)NC(=O)[C@H](CC(C)C)NC(=O)[C@H](Cc1ccccc1)NC(=O)[C@H](Cc1c[nH]cn1)NC(=O)[C@H](C)NC(=O)[C@H](CC(C)C)NC(=O)[C@H](CCCNC(=N)N)NC(=O)[C@H](CCC(=O)O)NC(=O)[C@@H](NC(=O)[C@H](C)NC(=O)[C@@H]1CCC(=O)NCC[C@H](NC(=O)[C@H](CCCNC(=N)N)NC(=O)CC[C@H](NC(=O)CCCCCCCCCCCCCCCCCCC(=O)O)C(=O)O)C(=O)NCC(=O)N[C@@H]([C@@H](C)O)C(=O)N[C@@H](C)C(=O)N[C@@H]([C@@H](C)O)C(=O)N1)[C@@H](C)O
As for B4, the hAMYR3 EC50 [nM] (cAMP formation, 1321N1 cells expressing hAMYR3) in assay [1] was determined as 0.442 nM. Further, the hCT-R EC50 [nM] (cAMP formation, 1321N1 cells expressing hCT-R) in assay [2] was 1.04 nM.
